Measured values as given in article PMC6598175.

Substrate: Cc1cc(=O)oc2cc(O[C@@H]3OC[C@@H](O[C@@H]4OC[C@@H](O)[C@H](O)[C@H]4O)[C@H](O)[C@H]3O)ccc12
Assay: Substrate hydrolysis kinetics
Format: biochemical, A. aculeatus
Conditions: other: fluorogenic 4MU substrate, pH 5.0

B1: …_127619 (Aspergillus aculeatus ATCC 16872) (protein)
chain: VGLDQAAVAKGLQYFGTATDNPELTDIPYVTQLNNTADFGQITPGNSMKWDATEPSQGTFTFTNGDVIADLAEGNGQYLRCHTLVWYNQLPSWVTSGTWTNATLTAALKNHITNVVSHYKGKCLHWDVVNEALNDDGTYRTNIFYTTIGEAYIPIAFAAAAAADPDAKLFYNDYNLEYGGAKAASARAIVQLVKNAGAKIDGVGLQAHFSVGTVPSTSSLISVLQSFTALGVEVAYTEADVRILLPTTATTLAQQSSDFQALVQSCVQTTGCVGFTIWDWTDKYSWVPSTFSGYGAALPWDENLVKKPAYNGLLAG
In the case of B1, the Km is reported as 279 µM.
